Assay results as given in patent CN114957460A (dated 2022).

Experiments:
Assay in all cases: cell-based or functional assay
双组分毒素HlgAB = 双组分毒素HlgAB (金黄色葡萄球菌 (Staphylococcus aureus), UniProt P0A074 30-309; P0A077 26-325)
双组分毒素HlgA+LukD = 双组分毒素HlgA+LukD (金黄色葡萄球菌 (Staphylococcus aureus), UniProt P0A074 30-309; O54082 27-327)
双组分毒素HlgA+LukF = 双组分毒素HlgA+LukF (金黄色葡萄球菌 (Staphylococcus aureus), UniProt P0A074 30-309; P31715 26-323)

Measured: 兔红细胞溶血中和 (上清OD405)

B1: 鼠源抗原结合蛋白17C7 (antibody, V domains shown)
VH: EVQLQQSGAELVRSGASVKLSCTASGFNIKDYYMHWVKQRPEQGLEWIGWIDPENDIGEYAPKFQGKATMTADTSSNTAYLQLSSLTSEDTAVYFCNALWGGVLDYWGQGTSVTVSA
VL: DVVMTQTPLSLPVSLGDQASISCRSSQSLVNSNGNTYLHWYLQKPGQSPNLLIYRVSNRFSGVPDRFSGSGSGTDFTLKISRVEAEDLGVYFCSQSTHVPYTFGGGTKLEIKR
4 µg: all assays above
